How the values were obtained:
CD4 = CD4 (UniProt P01730); experiment: SPR, BIACORE 2000, CD4 immobilized on C1 chip
HIV-GP120 (HIV-1) = experiment: SPR, BIACORE 2000, HIV-GP120 immobilized on C1 chip

Sequence of oxidized antithrombin III (P01008 33-464): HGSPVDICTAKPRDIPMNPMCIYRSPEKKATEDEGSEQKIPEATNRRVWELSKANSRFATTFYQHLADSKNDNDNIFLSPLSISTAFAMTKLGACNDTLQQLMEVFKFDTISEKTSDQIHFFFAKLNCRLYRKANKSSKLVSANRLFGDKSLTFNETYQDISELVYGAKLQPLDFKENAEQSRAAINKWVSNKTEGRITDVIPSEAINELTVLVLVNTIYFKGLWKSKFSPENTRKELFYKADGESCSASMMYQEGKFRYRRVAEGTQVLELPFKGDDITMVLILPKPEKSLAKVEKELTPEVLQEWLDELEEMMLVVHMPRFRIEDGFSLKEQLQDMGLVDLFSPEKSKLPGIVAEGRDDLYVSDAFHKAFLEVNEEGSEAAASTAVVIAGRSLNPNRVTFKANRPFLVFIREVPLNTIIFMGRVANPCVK

## oxidized antithrombin III
CD4
  Kd: 1.63 nM
  kon: 713000 M⁻¹ s⁻¹
HIV-GP120 (HIV-1)
  Kd: 0.701 nM
  kon: 638000 M⁻¹ s⁻¹
